This is an account of results in patent US20220324953A1 (JIANGSU HENGRUI MEDICINE, published 2022).

Substitutions are numbered along the chain they refer to.

Assay [1] deals with T1, human CTGF protein (R&D, Cat No. 9190-CC) (human, UniProt P29279 27-349).
T1 construct: Bought protein; also called CTGF recombinant protein; CTGF (R&D)
T1 sequence: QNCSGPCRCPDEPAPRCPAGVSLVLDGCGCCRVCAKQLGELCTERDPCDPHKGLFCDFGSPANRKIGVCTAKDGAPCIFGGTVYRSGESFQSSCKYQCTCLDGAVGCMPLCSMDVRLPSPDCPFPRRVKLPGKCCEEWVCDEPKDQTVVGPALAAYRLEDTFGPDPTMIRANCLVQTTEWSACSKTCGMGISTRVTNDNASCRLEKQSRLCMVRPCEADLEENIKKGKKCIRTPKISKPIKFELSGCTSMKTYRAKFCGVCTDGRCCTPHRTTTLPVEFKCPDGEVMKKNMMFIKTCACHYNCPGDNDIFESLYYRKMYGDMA
Kind of assay: ELISA, plate coated with CTGF (R&D 9190-CC). The method, then: The binding activity of anti-human CTGF antibody to human CTGF protein was tested by ELISA assay and Biacore. A 96-well microtiter plate was directly coated with the CTGF recombinant protein. The signal strength upon the addition of the antibody was used to determine the binding activity of the antibody to CTGF. The specific experimental procedures were as follows:
The CTGF protein (R&D, Cat No. 9190-CC) was diluted with PBS, pH 7.4 (Shanghai Yuanpei, Cat No. B320) buffer to a concentration of 0.2 μg/ml, 50 μl/well of which was added into the 96-well microtiter plate (Corning, Cat No. CLS3590-100EA), and incubated in an incubator at 37° C. for 2 hours or at 4° C. overnight (16-18 hours). The liquid was removed, 250 μl/ well blocking solution (5% skim milk (BD skim milk, Cat No.232100) diluted in PBS) was added, and incubated in an incubator at 37° C. for 3 hours or at 4° C. overnight (16-18 hours) for blocking. After the blocking was finished, the blocking solution was removed, the plate was washed for 5 times with PBST buffer (PBS containing 0.1% Tween-20, pH 7.4), 50 μl/well of various concentrations of each of the test antibodies (antibodies purified from hybridoma or humanized antibodies) diluted with sample dilution solution were added, and incubated in an incubator at 37° C. for 1 hours. After the incubation was finished, the plate was washed for 3 times with PBST, 50 μl/well of HRP-labeled goat anti-mouse secondary antibody (Jackson Immuno Research, Cat No. 115-035-003) or goat anti-human secondary antibody (Jackson Immuno Research, Cat No. 109-035-003) diluted with sample dilution solution was added, and incubated at 37° C. for 1 hour. The plate was washed for 3 times with PBST, 50 μl/well of TMB chromogenic substrate (KPL, Cat No. 52-00-03) was added, incubated at room temperature for 5-10min, and 50 μl/well of 1 M H₂SO₄ was added to stop the reaction. The absorbance value was read by a microplate reader (Molecular Devices, VERSA max) at a wavelength of 450 nm, and the data was analyzed with GraphPad Prism 5. The binding of CTGF antibody to human CTGF protein was calculated as EC50 value.
Background: An ELISA detects its analyte on a solid surface through an enzyme-linked reagent.

Assay [2] concerns the target T2, Cynomolgus CTGF-Fc (fusion protein of cynomolgus CTGF coding region with Fc) (cynomolgus).
T2 construct: also called cyno-CTGF-mFc protein; cyno-CTGF protein with Fc tag
Kind of assay: ELISA, cyno-CTGF-Fc captured by anti-mFc. The method, then: The binding activity of anti-monkey CTGF antibody to monkey CTGF protein was tested by ELISA assay. A 96-well microtiter plate was directly coated with anti-mFc protein, and then the cyno-CTGF protein with Fc tag was bound to the plate, and then the antibody was added. The signal strength upon the addition of the antibody was used to determine the binding activity of the antibody to cyno-CTGF. The specific experimental procedures were as follows:
The anti-mFc Protein (Sigma, Cat No. M4280) was diluted with PBS, pH 7.4 (Shanghai Yuanpei, Cat No. B320) buffer to a concentration of 2 μg/ml, which was added into the 96-well microtiter plate (Corning, Cat No. CLS3590-100EA) at 50 μl/well, and incubated in an incubator at 37° C. for 2 hours. The liquid was removed, 250 μl/well blocking solution (5% skim milk (BD skim milk, Cat No.232100) diluted in PBS) was added, and incubated in an incubator at 37° C. for 3 hours or at 4° C. overnight (16-18 hours) for blocking. After the blocking was finished, the blocking solution was removed, the plate was washed for 3 times with PBST buffer (PBS containing 0.1% Tween-20, pH 7.4), 50 μl of 1 μg/ml cyno-CTGF-mFc protein was added into each well, incubated in an incubator at 37° C. for 1 hour, and then the plate was washed for 3 times with PBST buffer (PBS containing 0.1% Tween-20, pH 7.4). 50 μl/well of various concentrations of each of the test antibodies (antibodies purified from hybridoma or humanized antibodies) diluted with sample dilution solution were added, and incubated in an incubator at 37° C. for 1 hours. After the incubation was finished, the plate was washed for 3 times with PBST, 50 μl/well of HRP-labeled goat anti-mouse secondary antibody (Jackson Immuno Research, Cat No. 115-035-003) or goat anti-human secondary antibody (Jackson Immuno Research, Cat No. 109-035-003) diluted with sample dilution solution was added, and incubated at 37° C. for 1 hour. The plate was washed for 5 times with PBST, 50 μl/well of TMB chromogenic substrate (KPL, Cat No. 52-00-03) was added, incubated at room temperature for 5-10 min, and 50 μl/well of 1 M H₂SO₄ was added to stop the reaction. The absorbance value was read by a microplate reader (Molecular Devices, VERSA max) at a wavelength of 450 nm, and the data was analyzed with GraphPad Prism 5. The binding of CTGF antibody to cyno CTGF protein was calculated as EC50 value.

The target in assay [3] is T3, human CTGF (antigen of the Biacore assays) (human, UniProt P29279 27-349).
T3 construct: also called antigen human CTGF; human CTGF protein
T3 sequence (looked up): T1 sequence with D57H
Put plainly: Biacore, antibody captured on Protein A, CTGF in flow, 1:1 fit. From the text: (§1) A certain amount of each of the test antibodies was affinity-captured with Protein A biosensor chip (Cat. # 29127556, GE), and then a certain concentration of human or mouse CTGF was allowed to flow through the surface of the chip. The reaction signals were detected in real time with Biacore instrument to generate a binding and dissociation curve. After the dissociation was completed in each cycle, the biosensor chip was washed and regenerated with Glycine-HCl regeneration solution pH 1.5 (Cat. # BR-1003-54, GE). The running buffer for the assay was 1×HBS-EP buffer solution (Cat. # BR-1001-88, GE).
(Surface plasmon resonance follows binding to a sensor surface in real time, without labels.)

In assay [4] the target is T4, mouse CTGF (antigen of the Biacore assay) (mouse, UniProt P29268 26-348).
T4 construct: also called mouse CTGF protein
T4 sequence (looked up): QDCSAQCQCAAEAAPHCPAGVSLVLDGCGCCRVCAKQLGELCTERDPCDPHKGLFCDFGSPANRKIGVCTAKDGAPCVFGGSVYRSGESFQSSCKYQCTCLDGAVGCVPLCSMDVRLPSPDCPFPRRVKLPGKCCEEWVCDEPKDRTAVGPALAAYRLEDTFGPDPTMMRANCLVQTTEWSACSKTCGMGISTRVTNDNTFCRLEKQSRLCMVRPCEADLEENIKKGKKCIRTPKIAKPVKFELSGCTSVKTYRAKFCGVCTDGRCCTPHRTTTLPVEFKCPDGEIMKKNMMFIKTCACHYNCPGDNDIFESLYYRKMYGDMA
Kind of assay: Biacore, antibody captured on Protein A, mouse CTGF in flow, 1:1 fit.
Description: as §1

For assay [5], the target named is T3, human CTGF (antigen of the Biacore …). Put plainly: Biacore, CTGF immobilised, antibody 150 µg/ml then 50 nM TGF-β1 (competitor TGF-β1). The method, then:
First, the antigen human CTGF was immobilized onto a CMS biosensor chip (Cat. # BR-1005-30, GE) by amino coupling, with an immobilization level of 1500 RU, and then a high concentration of CTGF antibody (150 μg/ml) was allowed to flow through the surface of the chip for 150 s; 50 nM TGF-β1 protein was injected for 120 s, and the reaction signals were detected in real time with the Biacore T200 instrument to generate a binding and dissociation curve. After the dissociation was completed in each of the experimental cycles, the biosensor chip was washed and regenerated with regeneration buffer.
The resulting experimental data were statistically analyzed with GE Biacore T200 Evaluation version 3.0 software.

T2 sequence (chain, as listed by the source limits assumed): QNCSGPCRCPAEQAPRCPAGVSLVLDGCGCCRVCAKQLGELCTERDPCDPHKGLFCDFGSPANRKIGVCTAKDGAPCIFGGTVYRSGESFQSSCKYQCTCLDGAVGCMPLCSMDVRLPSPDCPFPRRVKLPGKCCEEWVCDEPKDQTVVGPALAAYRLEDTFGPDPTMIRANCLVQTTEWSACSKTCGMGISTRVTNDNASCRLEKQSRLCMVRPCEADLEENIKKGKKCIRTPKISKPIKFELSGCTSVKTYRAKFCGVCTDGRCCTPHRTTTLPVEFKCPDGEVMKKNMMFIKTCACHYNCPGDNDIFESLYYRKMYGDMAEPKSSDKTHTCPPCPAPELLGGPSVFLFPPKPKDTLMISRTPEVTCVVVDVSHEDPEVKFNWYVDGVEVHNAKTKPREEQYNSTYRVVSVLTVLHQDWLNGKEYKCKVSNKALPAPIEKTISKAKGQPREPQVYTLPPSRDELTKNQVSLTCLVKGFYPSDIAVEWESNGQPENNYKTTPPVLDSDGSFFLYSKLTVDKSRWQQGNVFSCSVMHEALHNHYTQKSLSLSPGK

B1: Hu95-51yk (antibody, human IgG1, kappa, V domains shown)
VH: EVQLVQSGAEVKKPGASVKVSCRASGFTFTNYAIHWVKQAPGQRLEWMGLVYPYTGGTAYNQKFKDKVTLTFDTSASTAYMELSSLRSEDTAVYYCARWGMIPGTNSYFDVWGQGTTVTVSS
VL: EIVLTQSPATLSLSPGERATLSCRASSSVSYIHWYQQKPGQAPRPWIYATSNLASGIPARFSGSGSGTDYTLTISRLEPEDFAVYYCQQWNSNPWTFGGGTKVEIKR
As to B1, the values for the EC50 in assay [1] and in assay [2] were 0.08 nM and 0.059 nM, respectively. For the same molecule, the equilibrium dissociation constant (Kd) (commonly a measure of binding affinity in units of concentration) in assay [3] worked out at 0.0358 nM; in assay [4], 0.0202 nM. Besides, the figures for the koff in assay [3] and in assay [4] were 0.00102 s⁻¹ and 0.000516 s⁻¹, respectively. Besides, the figures for the kon in assay [3] and in assay [4] were 2.84e+07 M⁻¹ s⁻¹ and 2.56e+07 M⁻¹ s⁻¹, respectively.

B2: Hu164-67yl (antibody, human IgG1, lambda)
heavy: EVTLKESGPVLVKPTETLTLTCTVSGFSLSTFGVHWIRQPPGKGLEWLGVIWRRGGTDYNAAFMSRLTISKDTSKSQVVFTMTNMDPVDTATYYCARDGGFDYWGQGTTVTVSSASTKGPSVFPLAPSSKSTSGGTAALGCLVKDYFPEPVTVSWNSGALTSGVHTFPAVLQSSGLYSLSSVVTVPSSSLGTQTYICNVNHKPSNTKVDKKVEPKSCDKTHTCPPCPAPELLGGPSVFLFPPKPKDTLYITREPEVTCVVVDVSHEDPEVKFNWYVDGVEVHNAKTKPREEQYNSTYRVVSVLTVLHQDWLNGKEYKCKVSNKALPAPIEKTISKAKGQPREPQVYTLPPSRDELTKNQVSLTCLVKGFYPSDIAVEWESNGQPENNYKTTPPVLDSDGSFFLYSKLTVDKSRWQQGNVFSCSVMHEALHNHYTQKSLSLSPGK
light: ETVVTQEPSLTVSPGGTVTLTCRSSIGAVTTSNYANWVQQKPGQAFRGLIGGTSNRAPWTPARFSGSLLGGKAALTLSGVQPEDEAEYYCALWYSTHYVFGGGTKLTVLGQPKANPTVTLFPPSSEELQANKATLVCLISDFYPGAVTVAWKADGSPVKAGVETTKPSKQSNNKYAASSYLSLTPEQWKSHRSYSCQVTHEGSTVEKTVAPTEC
B2: in assay [1], the midpoint of the response, the EC50, lay at 0.06 nM. For the same molecule, in assay [3], the Kd was found to be 0.0662 nM, the koff (usually the first-order rate constant of dissociation) is 0.00227 s⁻¹ and the kon (commonly a measure of how fast the partners come together) is 3.43e+07 M⁻¹ s⁻¹. Further, in assay [4], the Kd stood at 0.0363 nM, the koff came out at 0.00194 s⁻¹ and the on-rate (kon) was 5.34e+07 M⁻¹ s⁻¹. In addition, the “Function-blocking percentage (%)” value in assay [5] turned out to be 53.9%.
